Assay results taken from patent US20260274968A1 (FUSE BIOTHERAPEUTICS, published 2026).

Columns and labels:
Experiment in all cases: cell-based or functional assay
[1] = target: T1, human IL-18 receptor complex (IL-18Rα/β) (human, UniProt Q13478 19-541; O95256 20-599)
T1 sequence (looked up) 1: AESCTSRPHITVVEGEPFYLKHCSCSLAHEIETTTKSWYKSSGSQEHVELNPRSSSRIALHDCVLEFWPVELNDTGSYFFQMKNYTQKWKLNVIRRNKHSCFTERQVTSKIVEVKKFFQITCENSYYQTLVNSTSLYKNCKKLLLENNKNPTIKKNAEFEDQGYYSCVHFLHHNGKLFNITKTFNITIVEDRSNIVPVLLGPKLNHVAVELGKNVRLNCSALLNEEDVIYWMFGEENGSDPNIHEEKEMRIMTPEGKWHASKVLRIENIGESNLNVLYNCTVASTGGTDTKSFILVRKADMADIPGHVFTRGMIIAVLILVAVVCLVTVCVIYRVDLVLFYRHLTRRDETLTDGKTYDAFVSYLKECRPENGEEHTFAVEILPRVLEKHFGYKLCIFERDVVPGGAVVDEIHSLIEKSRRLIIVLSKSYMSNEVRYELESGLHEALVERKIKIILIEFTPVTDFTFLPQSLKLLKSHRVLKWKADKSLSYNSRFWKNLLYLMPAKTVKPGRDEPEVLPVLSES
T1 sequence (looked up) 2: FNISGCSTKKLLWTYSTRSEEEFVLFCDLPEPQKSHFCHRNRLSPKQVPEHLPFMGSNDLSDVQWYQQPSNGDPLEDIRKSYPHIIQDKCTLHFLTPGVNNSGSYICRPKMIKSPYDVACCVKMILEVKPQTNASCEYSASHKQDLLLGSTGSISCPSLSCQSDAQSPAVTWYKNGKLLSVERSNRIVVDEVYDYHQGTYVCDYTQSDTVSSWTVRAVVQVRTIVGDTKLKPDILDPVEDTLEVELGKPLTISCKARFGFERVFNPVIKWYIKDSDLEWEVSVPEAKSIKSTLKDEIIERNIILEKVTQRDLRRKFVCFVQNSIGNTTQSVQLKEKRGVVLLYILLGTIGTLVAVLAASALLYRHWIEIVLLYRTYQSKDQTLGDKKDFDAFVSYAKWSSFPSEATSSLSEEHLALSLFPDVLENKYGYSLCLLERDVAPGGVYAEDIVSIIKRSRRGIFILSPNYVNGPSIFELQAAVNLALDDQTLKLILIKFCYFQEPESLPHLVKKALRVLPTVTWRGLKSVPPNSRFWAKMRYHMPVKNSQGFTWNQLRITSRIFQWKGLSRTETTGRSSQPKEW

[2] = target: T2, human recombinant IL-18-BP (human, UniProt O95998 31-194)
T2 sequence (looked up): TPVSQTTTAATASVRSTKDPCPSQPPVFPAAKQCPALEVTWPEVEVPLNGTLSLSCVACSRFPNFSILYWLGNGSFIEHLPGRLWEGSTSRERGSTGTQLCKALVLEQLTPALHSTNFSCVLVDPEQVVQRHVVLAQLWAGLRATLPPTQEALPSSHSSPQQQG

[3] = target: T1, human IL-18 receptor complex (IL-18Rα/β); remark: listed apart in the source
[4] = target: T1, human IL-18 receptor complex (IL-18Rα/β); remark: listed apart in the source

B1: FUSE-782 (antibody, human IgG1, kappa, L234A L235A)
heavy 1: QVQLVESGGGVVQPGRSLRLDCKASGITFSNSGMHWVRQAPGKGLEWVAVIWYDGSKRYYADSVKGRFTISRDNSKNTLFLQMSSLRAEDTAVYYCATNDDYWGQGTLVTVSSASTKGPSVFPLAPSSKSTSGGTAALGCLVKDYFPEPVTVSWNSGALTSGVHTFPAVLQSSGLYSLSSVVTVPSSSLGTQTYICNVNHKPSNTKVDKKVEPKSCDKTHTCPPCPAPEAAGGPSVFLFPPKPKDTLMISRTPEVTCVVVDVSHEDPEVKFNWYVDGVEVHNAKTKPREEQYNSTYRVVSVLTVLHQDWLNGKEYKCKVSNKALPAPIEKTISKAKGQPREPQVYTLPPSREEMTKNQVSLSCAVKGFYPSDIAVEWESNGQPENNYKTTPPVLDSDGSFFLVSKLTVDKSRWQQGNVFSCSVMHEALHNRFTQKSLSLSPGK
heavy 2: QVQLVESGGGVVQPGRSLRLDCKASGITFSNSGMHWVRQAPGKGLEWVAVIWYDGSKRYYADSVKGRFTISRDNSKNTLFLQMSSLRAEDTAVYYCATNDDYWGQGTLVTVSSASTKGPSVFPLAPSSKSTSGGTAALGCLVKDYFPEPVTVSWNSGALTSGVHTFPAVLQSSGLYSLSSVVTVPSSSLGTQTYICNVNHKPSNTKVDKKVEPKSCDKTHTCPPCPAPEAAGGPSVFLFPPKPKDTLMISRTPEVTCVVVDVSHEDPEVKFNWYVDGVEVHNAKTKPREEQYNSTYRVVSVLTVLHQDWLNGKEYKCKVSNKALPAPIEKTISKAKGQPREPQVYTLPPSREEMTKNQVSLWCLVKGFYPSDIAVEWESNGQPENNYKTTPPVLDSDGSFFLYSKLTVDKSRWQQGNVFSCSVMHEALHNHYTQKSLSLSPGGGGGSGGGGSGGGGSGGGGSAAEPVEDNSINFVAMKFIDNTLYFIAENDENGGGSYFGKLESKLSVIRNLNDQVLFIDQGNRPLFEDMTDSDSRDNAPRTIFIISKYGDSQPRGLAVTISVKSEKISTLSSENKIISFKEMNPPDNIKDTKSDIIFFQRSVPGHDNKVQFESSSYEGYFLASEKERDLFKLILKKEDELGDRSIMFTVQNED
light: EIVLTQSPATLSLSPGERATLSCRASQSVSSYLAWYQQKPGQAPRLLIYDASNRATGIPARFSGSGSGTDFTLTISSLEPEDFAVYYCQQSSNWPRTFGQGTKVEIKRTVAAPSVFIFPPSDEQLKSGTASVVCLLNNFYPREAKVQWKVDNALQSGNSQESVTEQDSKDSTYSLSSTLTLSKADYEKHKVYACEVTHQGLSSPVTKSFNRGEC
IL18 biological activity on HEK Blue IL18 (trans activity only), attenuation relative to recombinant human IL18 [1]: > 100000 fold
SEAP release of PD-1 decorated HEK Blue IL18 (cis activity), increase relative to non targeted FUSE827 [1]: ~100 fold
SEAP release, PD-1 decorated HEK Blue IL-18 against non-decorated HEK Blue IL18 [1]: ~100 fold

B2: FUSE-783 (antibody, human IgG1, kappa, L234A L235A)
heavy 1: QVQLVESGGGVVQPGRSLRLDCKASGITFSNSGMHWVRQAPGKGLEWVAVIWYDGSKRYYADSVKGRFTISRDNSKNTLFLQMSSLRAEDTAVYYCATNDDYWGQGTLVTVSSASTKGPSVFPLAPSSKSTSGGTAALGCLVKDYFPEPVTVSWNSGALTSGVHTFPAVLQSSGLYSLSSVVTVPSSSLGTQTYICNVNHKPSNTKVDKKVEPKSCDKTHTCPPCPAPEAAGGPSVFLFPPKPKDTLMISRTPEVTCVVVDVSHEDPEVKFNWYVDGVEVHNAKTKPREEQYNSTYRVVSVLTVLHQDWLNGKEYKCKVSNKALPAPIEKTISKAKGQPREPQVYTLPPSREEMTKNQVSLSCAVKGFYPSDIAVEWESNGQPENNYKTTPPVLDSDGSFFLVSKLTVDKSRWQQGNVFSCSVMHEALHNRFTQKSLSLSPGK
heavy 2: QVQLVESGGGVVQPGRSLRLDCKASGITFSNSGMHWVRQAPGKGLEWVAVIWYDGSKRYYADSVKGRFTISRDNSKNTLFLQMSSLRAEDTAVYYCATNDDYWGQGTLVTVSSASTKGPSVFPLAPSSKSTSGGTAALGCLVKDYFPEPVTVSWNSGALTSGVHTFPAVLQSSGLYSLSSVVTVPSSSLGTQTYICNVNHKPSNTKVDKKVEPKSCDKTHTCPPCPAPEAAGGPSVFLFPPKPKDTLMISRTPEVTCVVVDVSHEDPEVKFNWYVDGVEVHNAKTKPREEQYNSTYRVVSVLTVLHQDWLNGKEYKCKVSNKALPAPIEKTISKAKGQPREPQVYTLPPSREEMTKNQVSLWCLVKGFYPSDIAVEWESNGQPENNYKTTPPVLDSDGSFFLYSKLTVDKSRWQQGNVFSCSVMHEALHNHYTQKSLSLSPGGGGGSGGGGSGGGGSGGGGSAAEPVEDNVINFVAMKFIDNTLYFIAENDENGGGSYFGKLESKLSVIRNLNDQVLFIDQGNRPLFEDMTDSDVRDNAPRTIFIISKYGDSQPRGLAVTISVKVEKISTLSVENKIISFKEMNPPDNIKDTKSDIIFFQRSVPGHDNKVQFESSSYEGYFLAVEKERDLFKLILKKEDELGDRSIMFTVQNED
light: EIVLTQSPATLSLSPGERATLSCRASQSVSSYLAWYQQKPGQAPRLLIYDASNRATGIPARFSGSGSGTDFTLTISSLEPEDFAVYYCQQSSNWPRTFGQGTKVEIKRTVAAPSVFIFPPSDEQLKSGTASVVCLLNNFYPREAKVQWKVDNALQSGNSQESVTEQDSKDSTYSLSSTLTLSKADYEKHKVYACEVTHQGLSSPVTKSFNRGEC
IL18 biological activity on HEK Blue IL18 (trans activity only), attenuation relative to recombinant human IL18 [1]: ~1000 fold
SEAP release of PD-1 decorated HEK Blue IL18 (cis activity), increase relative to non targeted FUSE775 [1]: ~30 fold
SEAP release, PD-1 decorated HEK Blue IL-18 against non-decorated HEK Blue IL18 [1]: ~30 fold

B3: IL-18AV released from FUSE-442 by enterokinase (ligand)
chain: YFGKLESKLSVIRNLNDQVLFIDQGNRPLFEDMTDSDVRDNAPRTIFIISMYKDSQPRGMAVTISVKVEKISTLSVENKIISFKEMNPPDNIKDTKSDIIFFQRSVPGHDNKMQFESSSYEGYFLAVEKERDLFKLILKKEDELGDRSIMFTVQNED
EC50-SEAP, HEK-Blue IL-18 reporter cells, EK-cleaved FUSE-442 titrated in medium with 1.25 µg/ml rhIL-18BP (row 'FUSE442 + EK +BP') [2]: 0.211 ng/mL
EC50-SEAP, HEK-Blue IL-18 reporter cells, EK-cleaved FUSE-442 titrated in medium alone (row 'FUSE442 + EK') [3]: 0.0186 ng/mL

B4: IL-18mut2AV released from FUSE-424 by enterokinase (ligand)
chain: YFGKLESKLSVIRNLNDQVLFIDQGNRPLFEDMTDSDVRDNAPRTIFIISKYGDSQPRGLAVTISVKVEKISTLSVENKIISFKEMNPPDNIKDTKSDIIFFQRSVPGHDNKVQFESSSYEGYFLAVEKERDLFKLILKKEDELGDRSIMFTVQNED
EC50-SEAP, HEK-Blue IL-18 reporter cells, EK-cleaved FUSE-424 titrated in medium alone (table G beside graph F 'EK-FUSE424'; the table row itself is labelled 'FUSE442 + EK') [4]: 0.0034 ng/mL
